Laboratory results as given in the supplement of paper PMC10724198.
± gives the standard deviation of the averaged measurements.

Tested on: Saccharomyces cerevisiae
Experiment: protein stability index of tFT-peptide fusion (C-terminal peptide) (PSI (0-1 scale)); higher = more stable (slower turnover)
Details: genetic background: wild type; temperature: 30 C
Experimental: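 Multiplexed protein stability (MPS) profiling in S. cerevisiae. Random 12-aa peptides (tFT-X12 library) are fused to the C-terminus of a sfGFP-mCherry tandem fluorescent timer, after mCherry and a GGGS linker. Cells are FACS-sorted into 8 mCherry/sfGFP bins and deep-sequenced. The protein stability index (PSI) is the read-weighted bin average, scaled from 0 (unstable) to 1 (stable). Only peptides with >10 reads are reported; cells were grown at 30 °C in SC-His with glucose.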
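Further: PSI is a weighted mean of sequencing reads over stability bins, variants kept only with over 10 reads, mCherry proximal and sfGFP distal, peptide attached via GGGS linker.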

Sequence | protein stability index
TEKERSKKDELK | 0.673 ± 0.064
GGGVGEWCLVRL | 0.6849 ± 4.4e-05
PPQTHPLPCPSP | 0.745 ± 0.018
GPRRVAVAGETS | 0.715 ± 0.037
APSRTTERILLL | 0.714 ± 0.029
GCLGDRVKSPIV | 0.638 ± 0.068
STPSPQPYIAPT | 0.735 ± 0.06
VGWLCVLGGAQR | 0.762 ± 0.045
LPSSPFPPLPVT | 0.6889 ± 0.0042
VWLWCDLSRGWI | 0.733 ± 0.013
AWGPGCVVRGRE | 0.7151 ± 0.0012
SRRSKDRAGVWV | 0.642 ± 0.0079
SCLGGRISSRCG | 0.69 ± 0.017
GSGAFSLVSSYF | 0.656 ± 0.017
DKLLTYTLGARI | 0.69 ± 0.016
GRRDARTEDVRE | 0.688 ± 0.0049
PPAPPPAPPHSS | 0.633 ± 0.061
GACSPQTNDSSR | 0.709 ± 0.035
PFLHQRLLDSVL | 0.726 ± 0.1
PRSPPTPPPAPP | 0.66 ± 0.013
CVGSLGVVVGWG | 0.724 ± 0.013
RLCPGAALAFRG | 0.718 ± 0.12
LNGRYGGFGHRC | 0.7009 ± 0.007
NPPALPPFSPSP | 0.708 ± 0.01
QMKKDIKPRPGE | 0.704 ± 0.037

Sequence | protein stability index
GRIAGGGGGWRW | 0.648 ± 0.064
EGAQVVLVRVGV | 0.547 ± 0.012
PPPPTPRPPSSL | 0.728 ± 0.061
QEKQDIIEDHTT | 0.655 ± 0.019
GKSRRQGCDPRR | 0.659 ± 0.035
VRRGAAGDDWGW | 0.869 ± 0.057
SHILPCTCPLAA | 0.574 ± 0.044
CGLVGVALSEGV | 0.65 ± 0.086
VDWLCGGLGGVR | 0.742 ± 0.11
IRKPRRHRTVET | 0.73 ± 0.057
CEYRRLVISVFD | 0.547 ± 0.028
AGSFGCREAVCP | 0.658 ± 0.044
LPAARQSVLPPA | 0.732 ± 0.0085
SEIKVIMNESKS | 0.679 ± 0.009
DRRNNRLIRRNQ | 0.7174 ± 0.0045
FRRHRHDVLTVR | 0.599 ± 0.05
KKKKKTQKKTKQ | 0.6818 ± 0.0029
VMGAGGRTVAEW | 0.719 ± 0.019
PPSLSGECSPSF | 0.6781 ± 0.0039
HLYARHCPPPNR | 0.677 ± 0.052
SGYWWIYMSELS | 0.666 ± 0.019
TISRRSCGPAQK | 0.6743 ± 0.0041
RFLDVSRYAGGV | 0.705 ± 0.025
RPYLARQTTAPS | 0.6575 ± 0.0033
QYDHGSSPRRFE | 0.7005 ± 0.0041

Sequence | protein stability index
VIAEHCSKQGLI | 0.639 ± 0.018
ACARIGRDYVTP | 0.687 ± 0.016
RRNGVVGRLGGV | 0.678 ± 0.032
GWGCGGGGAWSG | 0.767 ± 0.018
SPLSRSRPKSYL | 0.75 ± 0.072
LGGSNRPCVRSI | 0.697 ± 0.011
VVSGSHSVLYGS | 0.71 ± 0.028
VANRFRSILVRR | 0.599 ± 0.023
GRKKLQKKIEEQ | 0.6783 ± 0.0032
GPGAVTALGYGR | 0.668 ± 0.015
LVLGFDVTPGTF | 0.728 ± 0.017
QRPFKCMIKFNK | 0.67 ± 0.0078
GIYFARRVVDFG | 0.65 ± 0.011
MLFWDVGLLVFN | 0.579 ± 0.049
GWSVDGVVLGAP | 0.728 ± 0.046
EGTPGARSQGRE | 0.662 ± 0.035
RCACLSCSFLLQ | 0.679 ± 0.017
LCRCVFFGLWGV | 0.621 ± 0.031
GRFGIGLYLCFL | 0.597 ± 0.094
PLLCPASIHVTL | 0.679 ± 0.046
HSTSLLPSGSWF | 0.734 ± 0.016
GVGAPRLPPRPG | 0.696 ± 0.012
PAPPPPPPTTVL | 0.691 ± 0.03
GFLPCKVVRTCV | 0.549 ± 0.055
LSPCVGGLFGVV | 0.693 ± 0.017

Sequence | protein stability index
PRTRSYTRCGVT | 0.614 ± 0.024
AGGWLRGGLGVG | 0.7 ± 0.053
LSHIPDRQRLKP | 0.715 ± 0.062
PSLPPPPPPPSP | 0.614 ± 0.082
TVAVCPKIDYSV | 0.667 ± 0.0085
SSPVPLPPNPPA | 0.696 ± 0.038
STDNNLISEPKT | 0.731 ± 0.097
GAGMAGEVVGDG | 0.637 ± 0.026
SVRGWMILCTGM | 0.562 ± 0.049
LCPSFAIALSSD | 0.692 ± 0.013
VPSLFLYGNPMY | 0.71 ± 0.036
TKRKKKTQEGSR | 0.698 ± 0.045
SGSIRHSSPLPT | 0.75 ± 0.12
SCWHRNRKIILD | 0.573 ± 0.056
PSPVLLLPPPSL | 0.745 ± 0.059
TLPARTIHTTGH | 0.717 ± 0.028
KKNCRKNQKEET | 0.663 ± 0.067
SSSLHPRPSPPL | 0.692 ± 0.043
YRTPRSRHLDSP | 0.6938 ± 0.0068
PRSAPSPRRSPA | 0.757 ± 0.034
VWCVGRVGYEGE | 0.783 ± 0.1
AAHSQNPPPPSS | 0.697 ± 0.031
LSPFCIRSLRPD | 0.647 ± 0.069
RLHPSFPPPPPQ | 0.704 ± 0.029
AAWGSGMCLCVF | 0.559 ± 0.046

Sequence | protein stability index
TRDVLWHCWVLS | 0.514 ± 0.08
VRSRRQLPPADP | 0.723 ± 0.083
VEGSRDSLGCMD | 0.679 ± 0.03
YSDHFFQICGSF | 0.726 ± 0.0065
VVGGVGLGLWKV | 0.659 ± 0.097
CLHSKPSPESRT | 0.687 ± 0.041
VAPPRLSHGAPY | 0.545 ± 0.061
PPPHPPHSALPS | 0.762 ± 0.021
TGFGVQRKECGT | 0.629 ± 0.0066
LFFSLSLVVPTG | 0.633 ± 0.095
PRQGTRKYDKMN | 0.724 ± 0.059
KKNNTKKNRKRK | 0.7 ± 0.051
VFGGAGVGGDCG | 0.669 ± 0.012
RCTLPLSPSCSR | 0.6604 ± 0.0037
LGAPPPLGLSPS | 0.733 ± 0.019
ALGRTPYSGCFL | 0.631 ± 0.021
PEPMYHNSLFRP | 0.737 ± 0.018
FASVVADVFQFP | 0.772 ± 0.088
KKKKKIKNKKKK | 0.741 ± 0.032
PRSYPPSPPPPS | 0.704 ± 0.042
RSPQPPPSPSSG | 0.692 ± 0.027
LESARDICAFAD | 0.6754 ± 0.005
QNQKKHTRQQNQ | 0.722 ± 0.072
NVENSNTAGKGV | 0.689 ± 0.024
EGLCVLMTQVGG | 0.576 ± 0.016

Sequence | protein stability index
GITHSFLRSSVV | 0.689 ± 0.054
VGGGGLSGGAER | 0.678 ± 0.0093
GIIQKAQTSIKI | 0.592 ± 0.0067
SFLPRVVVRSTP | 0.667 ± 0.015
QRPGKKNGSGRP | 0.682 ± 0.031
PPSPPPTTPSPP | 0.656 ± 0.035
WSPILEHAISDL | 0.731 ± 0.017
VLVAWWGLGGGV | 0.637 ± 0.069
SFNLFFVVSPAL | 0.608 ± 0.097
EKRDENENTNKK | 0.66 ± 0.072
ILFVTASSFSPP | 0.67 ± 0.045
EELGRGLESLGL | 0.699 ± 0.076
PLTRPTDNNPSN | 0.774 ± 0.081
YSGNPGVRGFHG | 0.69 ± 0.073
RCRGSSWLLLCA | 0.518 ± 0.016
IYCGDRGITGGV | 0.683 ± 0.019
TRVKRQFRRGGI | 0.686 ± 0.011
TSETLLTLSTLT | 0.669 ± 0.04
TYFIVGGCGFFG | 0.643 ± 0.06
LSHAQIDPEFTE | 0.697 ± 0.042
LKHHDSNESASR | 0.651 ± 0.1
LPPPRPLPIPSP | 0.711 ± 0.047
VGRWCCELVWGV | 0.645 ± 0.022
VWVVSGRGGWWG | 0.6336 ± 0.0033
IKRRKRNRKRGP | 0.675 ± 0.041

Sequence | protein stability index
IHRTSVALFFFP | 0.713 ± 0.034
YSSGILPLEMIA | 0.606 ± 0.0092
ERKGIIIGHSHS | 0.71 ± 0.037
RGGTGGWKGVWV | 0.71 ± 0.022
LLTFSSCALPYR | 0.676 ± 0.092
IMRLCSSNRICG | 0.678 ± 0.027
PIQNHRFLPIVL | 0.713 ± 0.036
ARRIEGADAERG | 0.668 ± 0.048
GILSPSSLVSSL | 0.69 ± 0.057
SPLFFPSSPPYP | 0.751 ± 0.023
ASFWLPSNLLPI | 0.7322 ± 0.0013
SSGLMGFLFPMQ | 0.721 ± 0.017
RSDEGHDVLCLY | 0.615 ± 0.083
FVSGLEMCRTCF | 0.672 ± 0.025
LRGLLWFSRVGS | 0.618 ± 0.011
FCFFGRPCLSSV | 0.714 ± 0.14
VVCLGGGVLPRV | 0.654 ± 0.081
VTECLRQWERLG | 0.545 ± 0.045
TPPPLPSPAPRP | 0.715 ± 0.062
PGLDPFHGMNLS | 0.6906 ± 0.0027
GTWAGGGWSCES | 0.696 ± 0.039
FPPSDPAPTLPP | 0.749 ± 0.088
RTWLLRTVFPRL | 0.704 ± 0.024
WPLKTMLFGIWV | 0.562 ± 0.028
VCPILMARHCVE | 0.691 ± 0.057

Sequence | protein stability index
TEKAEVSTSSCR | 0.71 ± 0.033
PPPRFRPLPLRA | 0.5935 ± 0.0019
ITRAKGKPEISL | 0.639 ± 0.12
MDDIAAYTGSCT | 0.661 ± 0.032
RYLFAAVSFGYA | 0.726 ± 0.032
GKEIHREIIVTV | 0.618 ± 0.014
FFWFIASTNFSS | 0.609 ± 0.015
VGSPLSVCLSSR | 0.702 ± 0.012
KKSKEKGTRRQR | 0.651 ± 0.073
MGFARDVYGSVC | 0.702 ± 0.022
PDRPPVARATRP | 0.719 ± 0.017
GRRRVSTAPRTT | 0.739 ± 0.056
QSRPRNMFRVIS | 0.5469 ± 0.0045
VGGIGGWFCRGR | 0.73 ± 0.13
PAPPHPRIPSPT | 0.669 ± 0.073
LVLHWPSPREAL | 0.713 ± 0.071
PSPSPPRSPALS | 0.713 ± 0.056
FASLVSPWFDLV | 0.716 ± 0.13
LFVAFGAAESFE | 0.67 ± 0.098
LSSFPLPFPPPL | 0.659 ± 0.013
PRTPRPPSPPAS | 0.739 ± 0.015
